Test results reported in publication PMC10513324.

How the values were obtained:
[1] = molecular target: GST-Bicc1 (full-length, WT) (UniProt Q99MQ1); experiment: pull-down; full-length GST-Bicc1 (WT or mutD) on glutathione-Sepharose 4B beads, no RNA; HEK293T cell extracts with full-length or truncated ANKS3-Flag; 2 h at 4°C; western blot
GST-Bicc1 WT = experiment: GST pull-down, fluorescent RNA; details: 100 pmol labeled RNA with 5-10 pmol GST-Bicc1 on glutathione beads, 1 h at 4 C, then HEK293T extract (20 mM Tris-HCl pH 7.4, 2.5 mM MgCl2, 100 mM NaCl, 5% …)
GST-Bicc1 mutD = experiment: GST pull-down, fluorescent RNA; details: after incubation with ANKS3-Flag HEK293T extract; 100 pmol labeled RNA with 5-10 pmol GST-Bicc1 on glutathione beads, 1 h at 4 C; then HEK293T extract (20 mM Tris-HCl pH 7.4, 2.5 mM MgCl2, 100 mM NaCl, 5% …)
[2] = molecular target: GST-Bicc1-KH (complete KH tandem repeat of Bicc1 fused to GST); experiment: pull-down; GST fusions of Bicc1 fragments (KH tandem repeat, KH1, KH2, IVS) on glutathione-Sepharose 4B beads; HEK293T cell extracts with ANKS3-Flag (full-length or ΔNter), without v5-ANKS6; 2 h at 4°C; western blot

Chain of UniProt Q99MQ1 (Q99MQ1 whole entry, the tested form may be a part): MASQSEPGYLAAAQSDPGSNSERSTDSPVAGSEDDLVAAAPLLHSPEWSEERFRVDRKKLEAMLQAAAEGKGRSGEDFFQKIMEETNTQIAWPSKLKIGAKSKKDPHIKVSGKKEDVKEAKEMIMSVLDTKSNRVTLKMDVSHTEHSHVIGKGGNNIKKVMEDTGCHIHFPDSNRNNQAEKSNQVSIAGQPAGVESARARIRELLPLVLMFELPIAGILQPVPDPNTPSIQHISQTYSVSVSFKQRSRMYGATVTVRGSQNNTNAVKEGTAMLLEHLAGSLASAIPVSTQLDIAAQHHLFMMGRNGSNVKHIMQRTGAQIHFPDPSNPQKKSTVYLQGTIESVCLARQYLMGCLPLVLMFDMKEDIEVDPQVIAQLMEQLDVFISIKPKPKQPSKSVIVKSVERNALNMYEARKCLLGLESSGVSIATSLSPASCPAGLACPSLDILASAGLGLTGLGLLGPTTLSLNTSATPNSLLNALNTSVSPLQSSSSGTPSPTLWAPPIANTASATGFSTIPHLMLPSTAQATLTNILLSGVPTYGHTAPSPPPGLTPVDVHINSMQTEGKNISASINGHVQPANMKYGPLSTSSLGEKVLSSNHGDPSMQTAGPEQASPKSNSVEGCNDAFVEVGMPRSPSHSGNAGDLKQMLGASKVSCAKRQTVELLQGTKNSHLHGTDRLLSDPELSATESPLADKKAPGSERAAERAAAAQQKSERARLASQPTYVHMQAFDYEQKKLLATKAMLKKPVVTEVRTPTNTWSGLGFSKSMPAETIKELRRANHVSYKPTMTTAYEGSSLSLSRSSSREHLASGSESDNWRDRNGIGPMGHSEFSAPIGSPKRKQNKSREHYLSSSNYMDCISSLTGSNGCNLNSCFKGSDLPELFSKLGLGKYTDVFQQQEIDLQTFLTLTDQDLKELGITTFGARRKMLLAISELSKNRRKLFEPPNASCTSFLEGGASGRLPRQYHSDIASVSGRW

Molecule: ANKS3 ΔSAM-Flag (from UniProt Q6ZW76 1-656) (domain or fragment)
- percent decrease of binding against full-length ANKS3-Flag [1]: 60%

Molecule: Dand5-3'UTR 226-270 RNA
- binding signal (% (relative to 66-110 RNA, inferred)) (GST-Bicc1 WT; with ANKS3-Flag HEK293T extract): 17.2

Molecule: Dand5-3'UTR 66-110 RNA
- binding signal (% (reference)) (GST-Bicc1 WT): 100
- binding signal (% of RNA bound by WT GST-Bicc1) (GST-Bicc1 mutD): 231

B1: ANKS3 ΔNter-Flag (domain or fragment)
chain: MMDTYSPSLPKSLYRSPEKYEDLSSSDESCPAPQRQRPCRKKGVSIHEGPRALARITGIGLGGRAPRPRYEQAPPRGYVTFNSSGENPLEEEGLCCRDVTSPINERDVESSSSSSSREEHAFCANLGPVQSSSSSEGLARAQGLSSEASVESNEDSDHACKSSARKQAKSYMKTKNPDSQWPPRAATDREGFLAESSPQTQRAPYSGPQDLAALLEQIGCLKYLQVFEEQDVDLRIFLTLTESDLKEIGITLFGPKRKMTSAIARWHSSARPPGDALELAYADRLEAEMQELAIQLHKRCEEVEATRGQVCQEQELRAVVESCLLEQDRAREDLQARLRETWALARDAALVLDQLRACQAELSSRVRQDQPPGAATLGLAVPPADSKGWQASLQAMSLPELSGALEDRVREMGQALCLVTQSLEKLQVLNGKKWRET
- fold change of binding against full-length ANKS3 [2]: 8 fold
